In paper PMC10784507, “Disordered-to-ordered transitions in assembly factors allow the complex II catalytic subunit to switch binding partners” (Nature Communications, 2024):

Columns and labels:
[1] = target: T1, holo-SDHA with covalently attached FAD (human, UniProt P31040 43-664, covalently attached FAD (residue not stated)); assay: pull-down; preformed holo-SDHA-SDHAF2 (2 µM, His6 on SDHA) incubated with SDHAF4 or its variants, with or without 5 mM fumarate, 30 min 25 °C, then held on Ni-NTA agarose; SDS-PAGE with Coomassie, western blot for the truncated variants; conditions: both partners purified
T1 construct: also called SDHA with covalent FAD; His6-SDHA; source: E. coli BL21(DE3), purified; covalent FAD formed in vitro (apo-SDHA with SDHAF2, FAD and fumarate) or by co-expression with SDHAF2; not shown: His6, N-terminal, kept
T1 sequence (P31040 43-664): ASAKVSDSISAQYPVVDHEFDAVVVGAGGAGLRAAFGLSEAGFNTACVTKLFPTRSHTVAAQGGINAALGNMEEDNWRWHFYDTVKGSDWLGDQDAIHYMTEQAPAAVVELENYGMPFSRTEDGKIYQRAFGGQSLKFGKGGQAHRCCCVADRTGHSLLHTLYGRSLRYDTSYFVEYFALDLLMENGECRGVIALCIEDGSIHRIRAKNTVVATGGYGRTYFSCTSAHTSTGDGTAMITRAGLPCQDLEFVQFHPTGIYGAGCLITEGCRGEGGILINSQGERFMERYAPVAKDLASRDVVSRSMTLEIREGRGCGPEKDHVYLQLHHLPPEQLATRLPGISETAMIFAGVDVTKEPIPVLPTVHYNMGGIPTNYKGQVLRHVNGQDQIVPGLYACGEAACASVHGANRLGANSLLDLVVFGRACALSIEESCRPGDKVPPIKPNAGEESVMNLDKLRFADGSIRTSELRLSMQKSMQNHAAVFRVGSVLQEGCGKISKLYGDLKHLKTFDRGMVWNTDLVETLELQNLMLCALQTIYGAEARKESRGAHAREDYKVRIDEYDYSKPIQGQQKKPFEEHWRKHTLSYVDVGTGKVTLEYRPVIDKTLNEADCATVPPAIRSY

His6-apo-SDHA = target: T2, His6-apo-SDHA (human, UniProt P31040 43-664); assay: pull-down; Ni-NTA pull-down, pairwise; His6-apo-SDHA (2.6 µM) with SDHAF2 (6.4 µM) or FLAG-SDHAF4 (8 µM), no FAD; 40 mM HEPES pH 7.5, 0.5 mM DTT, 30 min 25 °C; SDS-PAGE, Coomassie; conditions: both partners purified
T2 construct: the same molecule with 75 µM FAD added is the form with non-covalent FAD; also called His-SDHA; not shown: His6, N-terminal, kept
T2 sequence (P31040 43-664): as above

[2] = target: T3, holo-SDHA-SDHAF2 complex (preformed from purified proteins) (human, UniProt P31040 43-664; Q9NX18 37-166, covalently attached FAD (residue not stated)); assay: pull-down; preformed holo-SDHA-SDHAF2 (2 µM, His6 on SDHA) incubated with SDHAF4 or its variants, with or without 5 mM fumarate, 30 min 25 °C, then held on Ni-NTA agarose; SDS-PAGE with Coomassie, western blot for the truncated variants; conditions: both partners purified
T3 construct: human SDHAF2, mature, residues 37-166; also called holo-SDHA-AF2; SDHA-AF2 complex; source: E. coli BL21(DE3) proteins, purified; not shown: His6, N-terminal, kept; His6, N-terminal, cleaved
T3 sequence (P31040 43-664, one chain of several): as the sequence (P31040 43-664) above

[3] = target: T1, holo-SDHA with covalently attached FAD; assay: crystal structure; SDHA-AF2-AF4: holo-SDHA-SDHAF2 with His6-SDHAF4, 5 h at 4 °C, SEC; crystals in 0.2 M ammonium citrate tribasic pH 8.0, 20% PEG 3,350, 1 mM DTT, 25 °C; conditions: both partners purified
[4] = target: T4, Human SDHA-AF2 complex (co-expressed, purified) (human, UniProt P31040 43-664; Q9NX18 37-166, covalently attached FAD (residue not stated)); assay: as above; conditions: both partners purified
T4 construct: human SDHAF2, mature, residues 37-166; also called holo-SDHA-SDHAF2 complex; holo-SDHA-AF2; not shown: His6, N-terminal, kept
T4 sequence (P31040 43-664, one chain of several): as the sequence (P31040 43-664) above

[5] = target: the molecule itself; assay: native gel or EMSA; purified His6-SDHAF4^30-108, dilution series from 5 mg/ml, on 10% native and 10% SDS gels

Binder	percent of SDHAF2 displaced from the SDHA-AF2 complex [2] [%]	binding result [2]	further results
SDHAF2 (residues 37-166, His6 tag removed with TEV protease) (natural protein, human, UniProt Q9NX18 37-166, looked up, human SDHAF2, mature, residues 37-166; source: E. coli BL21(DE3), purified; His6 tag removed with TEV protease; not shown: His6, N-terminal, cleaved) GDSPTDSQKDMIEIPLPPWQERTDESIETKRARLLYESRKRGMLENCILLSLFAKEHLQHMTEKQLNLYDRLINEPSNDWDIYYWATEAKPAPEIFENEVMALLRDFAKNKNKEQRLRAPDLEYLFEKPR	–	–	binding result [1]: binds; binding result (His6-apo-SDHA): binds
FLAG-SDHAF4 (mature, residues 20-108) (natural protein, human, UniProt Q5VUM1 20-108, looked up, human SDHAF4, mature protein, residues 20-108, codon-optimised synthetic gene in pST50Trc3-FLAG; also called full-length SDHAF4; wild-type SDHAF4; source: E. coli BL21(DE3), purified (DEAE-Sepharose, filtration)) AARSPLLCHSLRKTSSSQGGKSELVKQSLKKPKLPEGRFDAPEDSHLEKEPLEKFPDDVNPVTKEKGGPRGPEPTRYGDWERKGRCIDF	~80	–	–
SDHAF4^D107A (natural protein, human, UniProt Q5VUM1 30-108, looked up, human SDHAF4, residues 30-108, made by modification of the pQT-SDHAF4 parent vector; The pQT vector adds a TEV-cleavable His tag; source: E. coli BL21(DE3), purified) LRKTSSSQGGKSELVKQSLKKPKLPEGRFDAPEDSHLEKEPLEKFPDDVNPVTKEKGGPRGPEPTRYGDWERKGRCIAF	–	binds	–
SDHAF4^D107N (natural protein, human, UniProt Q5VUM1 30-108, looked up, human SDHAF4, residues 30-108, made by modification of the pQT-SDHAF4 parent vector; The pQT vector adds a TEV-cleavable His tag; source: E. coli BL21(DE3), purified) LRKTSSSQGGKSELVKQSLKKPKLPEGRFDAPEDSHLEKEPLEKFPDDVNPVTKEKGGPRGPEPTRYGDWERKGRCINF	–	binds	–
SDHAF4^D107T (natural protein, human SDHAF4, residues 30-108, made by modification of the pQT-SDHAF4 parent vector; The pQT vector adds a TEV-cleavable His tag; source: E. coli BL21(DE3), purified) not shown	–	binds	–
SDHAF4^F108A (natural protein, human, UniProt Q5VUM1 30-108, looked up, human SDHAF4, residues 30-108, made by modification of the pQT-SDHAF4 parent vector; The pQT vector adds a TEV-cleavable His tag; source: E. coli BL21(DE3), purified) LRKTSSSQGGKSELVKQSLKKPKLPEGRFDAPEDSHLEKEPLEKFPDDVNPVTKEKGGPRGPEPTRYGDWERKGRCIDA	–	binds	–
SDHAF4^ΔF108 (natural protein, human, UniProt Q5VUM1 30-108, looked up, human SDHAF4, residues 30-108 without the C-terminal F108, made by modification of the pQT-SDHAF4 parent vector; The pQT vector adds a TEV-cleavable His tag; source: E. coli BL21(DE3), purified) LRKTSSSQGGKSELVKQSLKKPKLPEGRFDAPEDSHLEKEPLEKFPDDVNPVTKEKGGPRGPEPTRYGDWERKGRCID	–	binds	–
SDHAF4^77-108 (domain or fragment, human SDHAF4, residues 77-108; also called truncated FLAG-SDHAF4 variant) not shown	~50	–	–
SDHAF4^67-108 (domain or fragment, human SDHAF4, residues 67-108; also called truncated FLAG-SDHAF4 variant) not shown	~50	–	–
SDHAF4^56-108 (domain or fragment, human SDHAF4, residues 56-108; also called truncated FLAG-SDHAF4 variant) not shown	~50	–	–
His6-SDHAF4^30-108 (natural protein, human, UniProt Q5VUM1 30-108, looked up, human SDHAF4, residues 30-108, in the pQT vector (pQT-SDHAF4); also called His-SDHAF4; purified SDHAF4; source: E. coli BL21(DE3), purified (Ni-NTA, SEC); not shown: His6, N-terminal, kept) LRKTSSSQGGKSELVKQSLKKPKLPEGRFDAPEDSHLEKEPLEKFPDDVNPVTKEKGGPRGPEPTRYGDWERKGRCIDF	–	–	binding result [3]: binds; binding result [4]: binds; binding result [5]: binds
